# In article PMC13156308:
# Columns and labels:
# [1] = target: full-length strep-tagged POLD3 (human) (UniProt Q15054); experiment: BLI; POLD3 immobilised on Streptavidin (SAX) biosensors, BLItz, 1x PBS and 0.02% Tween
# [2] = target: GST-tagged MCM2 (human) (UniProt P49736); experiment: BLI; MCM2 immobilised on Anti-GST biosensors, BLItz, 1x PBS and 0.02% Tween; analyte 0-50.0 nM
# GST-tagged MCM2 (human), sequence (P49736 whole entry): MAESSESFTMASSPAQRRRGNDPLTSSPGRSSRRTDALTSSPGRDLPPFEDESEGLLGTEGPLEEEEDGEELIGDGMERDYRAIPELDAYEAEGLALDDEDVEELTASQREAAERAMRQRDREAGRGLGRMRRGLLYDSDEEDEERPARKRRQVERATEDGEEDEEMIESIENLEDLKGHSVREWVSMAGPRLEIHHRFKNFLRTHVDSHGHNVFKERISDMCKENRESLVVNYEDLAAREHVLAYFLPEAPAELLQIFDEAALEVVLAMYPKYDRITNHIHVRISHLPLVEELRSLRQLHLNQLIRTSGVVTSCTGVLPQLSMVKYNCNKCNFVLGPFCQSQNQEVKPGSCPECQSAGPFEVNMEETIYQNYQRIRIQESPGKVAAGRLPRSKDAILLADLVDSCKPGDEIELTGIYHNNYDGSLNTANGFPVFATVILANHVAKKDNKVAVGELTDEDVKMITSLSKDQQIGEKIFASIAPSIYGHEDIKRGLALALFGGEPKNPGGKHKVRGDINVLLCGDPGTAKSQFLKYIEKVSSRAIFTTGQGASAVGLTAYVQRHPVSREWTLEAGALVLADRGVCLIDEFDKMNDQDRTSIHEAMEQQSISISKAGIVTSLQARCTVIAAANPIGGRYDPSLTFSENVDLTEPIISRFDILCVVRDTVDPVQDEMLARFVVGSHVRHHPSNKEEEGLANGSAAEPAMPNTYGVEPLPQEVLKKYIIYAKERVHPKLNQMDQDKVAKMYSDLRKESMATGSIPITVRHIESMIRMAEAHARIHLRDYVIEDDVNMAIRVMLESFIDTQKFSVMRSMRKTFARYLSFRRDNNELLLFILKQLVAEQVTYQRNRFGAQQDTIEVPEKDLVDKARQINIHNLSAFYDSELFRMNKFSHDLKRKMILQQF
# full-length strep-tagged POLD3 (human), sequence (Q15054 whole entry): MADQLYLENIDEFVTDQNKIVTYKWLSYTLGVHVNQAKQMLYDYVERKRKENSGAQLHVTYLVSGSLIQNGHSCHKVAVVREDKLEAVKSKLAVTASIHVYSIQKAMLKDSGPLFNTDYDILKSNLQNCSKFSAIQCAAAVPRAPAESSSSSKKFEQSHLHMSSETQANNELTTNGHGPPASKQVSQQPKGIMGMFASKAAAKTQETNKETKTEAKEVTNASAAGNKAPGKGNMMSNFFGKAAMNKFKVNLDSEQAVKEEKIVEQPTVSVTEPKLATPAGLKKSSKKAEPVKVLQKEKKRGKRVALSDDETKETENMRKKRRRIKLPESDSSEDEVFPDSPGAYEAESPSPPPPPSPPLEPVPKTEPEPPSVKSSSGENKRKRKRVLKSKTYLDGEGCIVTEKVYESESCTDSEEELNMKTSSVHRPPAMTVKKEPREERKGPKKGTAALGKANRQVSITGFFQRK
substance,measurement,setting,value
histone (H3.1-H4)2 tetramer (from UniProt P68431 1-136; P62805 1-103) (complex; other documents disagree on this pair),Kd,[1],2.7 nM
same,Kd,[2],2.17 nM
